Biological target: RBP4 (retinol binding protein 4) (Homo sapiens, UniProt P02753 19-201)
Test: aptamer-antibody sandwich chemiluminescence on streptavidin wells; 2 mM Mg2+, 1 mM Ca2+; linear range 0.001-2 ng/mL, LOD 951 fg/mL; Binding buffer 20 mM Tris-HCl pH 7.6, 100 mM NaCl, 2 mM MgCl2, 5 mM KCl, 1 mM CaCl2, 0.02% Tween-20; RBP4 1 h (temperature not stated), reporter antibody step 1

B1: RBA (RBP4 aptamer), biotin-T10 (ssDNA)
DNA: TTTTTTTTTTATACCAGCTTATTCAATTACAGTAGTGAGGGGTCCGTCGTGGGGTAGTTGGGTCGTGGAGATAGTAAGTGCAATCT
B1: binds.

From article PMC6969062, “Ultrasensitive nano-aptasensor for monitoring retinol binding protein 4 as a biomarker for diabetes prognosis at early stages”
